The record followed here is patent publication US20100048462A1, “TRUNCATED PTH PEPTIDES WITH A CYCLIC CONFORMATION” (Zealand Pharma A/S, priority 2006, published 2010).

Where two headings read alike, the source gives them in different places. Bridge positions count the residues as written; N and C are the ends. Square brackets hold non-standard residues; d marks the D form. hArg = N=C(N)NCCCC[C@H](N)C(=O)O; Ac5c = NC1(C(=O)O)CCCC1; Aib = CC(C)(N)C(=O)O

What all share (assay): cell-based or functional assay
Assay [1] deals with PTH receptor 1 on MC3T3-E1 cells (murine) (UniProt P41593).
Sequence of PTH receptor 1 on MC3T3-E1 cells (murine) (P41593 27-591): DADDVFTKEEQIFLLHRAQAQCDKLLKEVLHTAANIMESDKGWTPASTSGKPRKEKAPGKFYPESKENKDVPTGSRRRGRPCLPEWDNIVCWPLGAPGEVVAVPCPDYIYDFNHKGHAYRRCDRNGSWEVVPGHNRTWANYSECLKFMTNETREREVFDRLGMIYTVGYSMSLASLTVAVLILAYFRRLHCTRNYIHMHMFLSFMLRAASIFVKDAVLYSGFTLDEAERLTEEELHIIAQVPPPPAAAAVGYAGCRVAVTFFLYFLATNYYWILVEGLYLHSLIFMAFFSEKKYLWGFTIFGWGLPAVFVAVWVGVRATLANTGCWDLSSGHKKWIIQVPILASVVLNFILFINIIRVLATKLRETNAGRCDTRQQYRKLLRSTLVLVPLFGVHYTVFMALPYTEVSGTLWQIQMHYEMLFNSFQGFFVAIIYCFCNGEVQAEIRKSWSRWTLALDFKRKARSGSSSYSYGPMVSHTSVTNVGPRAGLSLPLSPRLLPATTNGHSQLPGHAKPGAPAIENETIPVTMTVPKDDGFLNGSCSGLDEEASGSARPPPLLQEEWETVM
In assay [2] the target is Saos-2 PTH1R (UniProt Q03431).
Sequence of Saos-2 PTH1R (Q03431 27-593 limits assumed): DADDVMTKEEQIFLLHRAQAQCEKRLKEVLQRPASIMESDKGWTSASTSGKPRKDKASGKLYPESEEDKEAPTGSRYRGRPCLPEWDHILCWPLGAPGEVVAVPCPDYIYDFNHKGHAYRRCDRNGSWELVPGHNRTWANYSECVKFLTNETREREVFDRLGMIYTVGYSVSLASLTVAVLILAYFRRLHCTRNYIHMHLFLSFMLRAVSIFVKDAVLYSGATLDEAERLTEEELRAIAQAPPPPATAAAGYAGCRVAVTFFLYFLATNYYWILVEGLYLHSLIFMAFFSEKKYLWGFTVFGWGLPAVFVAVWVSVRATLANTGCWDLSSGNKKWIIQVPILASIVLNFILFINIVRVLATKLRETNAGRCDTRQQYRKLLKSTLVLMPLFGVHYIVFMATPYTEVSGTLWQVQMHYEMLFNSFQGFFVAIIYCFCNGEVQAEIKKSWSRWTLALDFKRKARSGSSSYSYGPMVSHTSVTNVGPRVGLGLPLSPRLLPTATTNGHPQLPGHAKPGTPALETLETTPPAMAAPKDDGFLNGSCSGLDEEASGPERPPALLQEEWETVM
The target of assay [3] is CYP2D6 (Homo sapiens, UniProt P10635).
Sequence of CYP2D6 (P10635 whole entry): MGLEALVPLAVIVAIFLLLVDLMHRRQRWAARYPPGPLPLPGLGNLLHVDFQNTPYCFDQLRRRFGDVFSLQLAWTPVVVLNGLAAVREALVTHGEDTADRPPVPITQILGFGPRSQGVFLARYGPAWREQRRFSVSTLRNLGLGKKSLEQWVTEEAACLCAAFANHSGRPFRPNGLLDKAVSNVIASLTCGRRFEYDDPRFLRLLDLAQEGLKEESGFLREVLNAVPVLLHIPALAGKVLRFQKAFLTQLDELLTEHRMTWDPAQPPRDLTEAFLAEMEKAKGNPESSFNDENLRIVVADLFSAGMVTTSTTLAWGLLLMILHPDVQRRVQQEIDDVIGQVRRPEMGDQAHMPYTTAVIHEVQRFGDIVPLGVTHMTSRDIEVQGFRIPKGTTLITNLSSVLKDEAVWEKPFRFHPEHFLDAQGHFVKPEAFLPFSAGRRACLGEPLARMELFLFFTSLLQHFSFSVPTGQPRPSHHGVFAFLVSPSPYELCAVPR

Turning to PTH(1-34) (peptide), in assay [1], the Emax, cAMP efficacy assay in MC3T3-E1 cells amounted to 4.4 pmol/well.
For the molecule “H-Ac5c-Val-Aib-Glu-Ile-Gln-Leu-Met-His-Gln-Har-Ala-Lys( )-Trp-Leu-Asp( )-NH2 (peptide)”, in assay [1], the Emax, cAMP efficacy assay in MC3T3-E1 cells was determined as 5 pmol/well and the pEC50, cAMP efficacy assay in MC3T3-E1 cells is 8 -log(M). In addition, in assay [2], the Emax, cAMP efficacy assay in Saos-2 cells (30T, trifluoroacetate salt) (relative to control (SEQ ID NO: 32)) worked out at 1.04 and the pEC50, cAMP efficacy assay in Saos-2 cells (30T, trifluoroacetate salt) is 7.09 -log(M). In addition, in assay [3], the CYP2D6 activity (% of vehicle), dextrorphan formation rate in human liver microsomes, 10 µM peptide is 83 % of vehicle.
For “(H-Ac5c-Val-Aib-Glu-Ile-Gln-Leu-Met-His-Gln-Har-Ala-Lys( )-Trp-Leu-Asp( )-NH2)2 (peptide)”, in assay [1], the EC50, cAMP in an osteoblast-like cell line (MC3T3-E1) was 1 nM; the Emax, cAMP efficacy assay in MC3T3-E1 cells is 5 pmol/well; the agonist potency relative to SEQ ID NO: 30, cAMP in MC3T3-E1 cells (fold stronger) came to 8; the pEC50, cAMP efficacy assay in MC3T3-E1 cells is 8.9 -log(M). Moreover, in assay [2], the Emax, cAMP efficacy assay in Saos-2 cells (33T, trifluoroacetate salt) (relative to control (SEQ ID NO: 32)) was 1.1 and the pEC50, cAMP efficacy assay in Saos-2 cells (33T, trifluoroacetate salt) was 7.88 -log(M).

B1: H-Ac5c-Val-Aib-Glu-Ile-Gln-Leu-Met-His-Asn-Leu-Gly-Lys-His-Leu-Asn-Asp-NH2 (peptide)
chain: H-[Ac5c]V[Aib]EIQLMHNLGKHLND-NH2
SMILES: CC[C@H](C)[C@H](NC(=O)[C@H](CCC(=O)O)NC(=O)C(C)(C)NC(=O)[C@@H](NC(=O)C1(N)CCCC1)C(C)C)C(=O)N[C@@H](CCC(N)=O)C(=O)N[C@@H](CC(C)C)C(=O)N[C@@H](CCSC)C(=O)N[C@@H](Cc1c[nH]cn1)C(=O)N[C@@H](CC(N)=O)C(=O)N[C@@H](CC(C)C)C(=O)NCC(=O)N[C@@H](CCCCN)C(=O)N[C@@H](Cc1c[nH]cn1)C(=O)N[C@@H](CC(C)C)C(=O)N[C@@H](CC(N)=O)C(=O)N[C@@H](CC(=O)O)C(N)=O
For the molecule B1, in assay [2], the Emax, cAMP efficacy assay in Saos-2 cells (34T, trifluoroacetate salt) (relative to control (SEQ ID NO: 32)) was 1.12 and the pEC50, cAMP efficacy assay in Saos-2 cells (34T, trifluoroacetate salt) was 6.67 -log(M). For the same molecule, the CYP2D6 activity (% of vehicle), dextrorphan formation rate in human liver microsomes, 10 µM peptide in assay [3] was 57 % of vehicle. Further, in assay [3] (record 2), the CYP2D6 activity (% of vehicle), dextrorphan formation rate in human liver microsomes, 10 µM peptide is 107 % of vehicle.

B2: H-Ac5c-V-Aib-…-NH2 (peptide)
chain: H-[Ac5c]V[Aib]EIQLMHNLGKHLNS-NH2
SMILES: CC[C@H](C)[C@H](NC(=O)[C@H](CCC(=O)O)NC(=O)C(C)(C)NC(=O)[C@@H](NC(=O)C1(N)CCCC1)C(C)C)C(=O)N[C@@H](CCC(N)=O)C(=O)N[C@@H](CC(C)C)C(=O)N[C@@H](CCSC)C(=O)N[C@@H](Cc1c[nH]cn1)C(=O)N[C@@H](CC(N)=O)C(=O)N[C@@H](CC(C)C)C(=O)NCC(=O)N[C@@H](CCCCN)C(=O)N[C@@H](Cc1c[nH]cn1)C(=O)N[C@@H](CC(C)C)C(=O)N[C@@H](CC(N)=O)C(=O)N[C@@H](CO)C(N)=O
Consider B2, for which, in assay [2], the Emax, cAMP efficacy assay in Saos-2 cells (35T, trifluoroacetate salt) (relative to control (SEQ ID NO: 32)) was determined as 1.2 and the pEC50, cAMP efficacy assay in Saos-2 cells (35T, trifluoroacetate salt) is 5.09 -log(M). Moreover, the CYP2D6 activity (% of vehicle), dextrorphan formation rate in human liver microsomes, 10 µM peptide in assay [3] is 48 % of vehicle.

B3: H-Ac5c-Val-Aib-Glu-Ile-Gln-Leu-Leu-His-Gln-Har-Ala-Lys( )-Trp-Leu-Asn-Asp( )-NH2 (peptide)
chain: H-[Ac5c]V[Aib]EIQLLHQ[hArg]AKWLND-NH2
modifications: lactam 13-17; also: acetate and trifluoroacetate salts
B3: in assay [2], the Emax, cAMP efficacy assay in Saos-2 cells (19A/T, acetate/trifluoroacetate salts) (relative to control (SEQ ID NO: 32)) is 1.05 and the pEC50, cAMP efficacy assay in Saos-2 cells (19A/T, acetate/trifluoroacetate salts) was 7.99 -log(M). Besides, in assay [3], the CYP2D6 activity (% of vehicle), dextrorphan formation rate in human liver microsomes, 10 µM peptide was 90 % of vehicle.
